According to paper PMC8017925, “Structural basis for differential recognition of phosphohistidine-containing peptides by 1-pHis and 3-pHis monoclonal antibodies” (Proceedings of the National Academy of Sciences of the …, 2021):

Assays:
[1] = target: NM23 pHis peptide; experiment: BLI of pHis Fabs with phosphorylated NM23 peptide; format: binding
Protocol: (§1) Next, we turned to further analyze the peptide selectivity using BLI experiments. Nine amino acid peptide sequences from proteins known to undergo histidine phosphorylation were selected and synthesized (SI Appendix, Table S2). The biotinylated peptides ACLY, NM23, SCS, and Common-His were chemically phosphorylated using phosphoramidate (8 h at 23 °C), and affinity-purified using immobilized 1-pHis IgGs or 3-pHis IgGs, as described above. BLI signal intensity was used to assess peptide binding to the Fabs. SC1-1, SC50-3, SC39-4, and SC56-2 had signal intensities in 0.5 to 1 nm for the association (SI Appendix, Fig. S10), whereas SC44-8 had maximum signal (2.0 nm) with ACLYana, which has GpHAGAG motif, and a signal of 0.5 nm for ACLY and SCS peptides, which have GpHAGAC and GpHAGAI motifs, respectively. However, there was no signal with NM23 and Common-His peptides, which lack this motif (SI Appendix, Fig. S10D). […] The binding kinetics of the pHis Fabs with this set of peptides indicate that the affinity values are similar for the pHis Fabs SC50-3, SC39-4, and SC56-2, consistent with them binding in a sequence-independent manner.
(§2) The binding kinetics of pHis Fabs with the peptides (pTza and pHis) were evaluated with an Octet RED96e (FortéBio). Streptavidin-coated biosensors (FortéBio) were presoaked in buffer containing 50 mM Hepes pH 8.0, 150 mM NaCl, 0.05% Tween-20, and 0.2% BSA for 15 min. The biotinylated pTza peptides or pHis peptides (20 nM) with and without phosphoramidate treatment were coated onto these streptavidin biosensors and analyzed for their binding to varying concentrations of the pHis Fabs with an association time of 120 s and dissociation time of 200 s. The entire set of experiments was repeated three times. The data were analyzed using the Octet software (FortéBio) and the rates of association and dissociation were obtained by global fitting data to the 1:1 Langmuir interaction model. […]
(§3) Peptides used in the DSF and BLI experiments were synthesized by the Salk Peptide Synthesis Core. These peptides were N-terminally biotinylated and C-terminally amidated. They were synthesized using standard Fmoc chemistry on a Gyros Protein Technologies Tribute peptide synthesizer with UV monitoring. […]
(§4) Phosphoramidation reaction. The small molecule phosphate donor phosphoramidate was used to phosphorylate the peptides containing His (Table S2). Phosphoramidate was synthesized based on Wei and Matthew’s method (2) and stored in a desiccator. 20 nanomoles of peptides were added to one micromole of the phosphoramidate in 50 mM Hepes pH 8.0 and 150 mM NaCl buffer. […]
(§5) 1H NMR of ACLYana peptide. A mixture of 5 mM ACLYana peptide and 250 mM phosphoramidate in 20 mM d18-Hepes, pH 8.0, 50 mM NaCl in D2O was incubated at 23 °C and monitored over the course of 29 h. […]

[2] = target: Common-His pHis peptide; experiment: BLI of pHis Fabs with phosphorylated Common-His peptide; format: binding
Protocol: as §1, §2, §3, §4, §5

[3] = BLI, phosphorylated, affinity-purified NM23 peptide, Table S7
[4] = BLI, phosphorylated, affinity-purified Common-His peptide, Table S7

KD ([1]; BLI, biotinylated NM23 peptide phosphorylated with phosphoramidate (8 h at 23 °C), affinity-purified on 1-pHis or 3-pHis IgGs (cognate isomer), Table S7): No binding
kd [1, 3]: No binding
KD ([2]; BLI, biotinylated Common-His peptide phosphorylated with phosphoramidate (8 h at 23 °C), affinity-purified on 1-pHis or 3-pHis IgGs (cognate isomer), Table S7): No binding
kd [2, 4]: No binding
B1: SC44-8: Fab of rabbit 3-pHis-specific monoclonal antibody with proclivity for GpHAGA motif (antibody, V domains shown)
VH: QSVKESGRGLVQPGGSLTLTCTASGFSIDSYGFSWVRQAPGKGLEHIGYLTAGGRAFYASWAKSRSTITRNTNENTVTLKMTSLTAADTATYFCAKLGSGNPVAIWGPGTLVTVSS
VL: QVLTQTPSFTSAAVGGTVTINCQSSQSVWRNKNLAWYQQKPGQPPKRLIYAIATLDSGVPSRFSGSGSGTQFTLTISDVQCDDAATYYCVGHYGSENDAYYAFGGGTEVVVK
ka [1, 3]: No binding
BLI signal with NM23 peptide ([1]; phosphorylated NM23, lacks GpHAGA motif): no signal
ka [2, 4]: No binding
BLI signal with Common-His peptide ([2]; phosphorylated Common-His, lacks GpHAGA motif): no signal
